Test results as given in paper PMC3903573, “Effects of an Anticarcinogenic Bowman-Birk Protease Inhibitor on Purified 20S Proteasome and MCF-7 Breast Cancer Cells” (PLoS ONE, 2014).

Key:
[1] = target: the molecule itself; assay: dynamic light scattering; BTCI alone, 15 µM, pH 7.5; hydrodynamic diameter 4.5 nm
[2] = target: 20S proteasome purified from horse erythrocytes (horse); assay: enzyme inhibition assay (fluorogenic substrates, Morrison equation); 20S proteasome 2.0 µg/mL with BTCI 2.0 to 30.0 µg/mL and 62.5 µg/mL fluorogenic substrate; 20.0 mM Tris-HCl pH 7.5, 1.0 mM EDTA, 1.0 mM NaN3, 1.0 mM DTT; room temperature, 60 min; Ki fitted with GRAFIT; conditions: both partners purified

KI or Kd, caspase-like site [2]: 1400 nM | KI or Kd, chymotrypsin-like site [2]: 700 nM | KI or Kd, trypsin-like site [2]: 100 nM
B1: Black-eyed pea Trypsin/Chymotrypsin Inhibitor (natural protein, Vigna unguiculata (Cowpea), UniProt P17734 1-83, looked up)
chain: SGHHXXSTXXASXSSKPCCRXCACTKSIPPXCRCSXVRLNSCHSACKSCACTFSIPAXCFCGXIXXFCYKPCKSSHSXXXXWN
modifications: X not resolved here
notes: 83 amino acid residues, seven disulfide bonds, 9.1 kDa; reactive sites Lys26 (trypsin) and Phe53 (chymotrypsin); By DLS a trimer at 15 µM and pH 7.5; also called BTCI; source: isolated from Vigna unguiculata (Cowpea) seeds, purified as previously described [29]
stoichiometry N [1]: 3
